We go through two substances from patent US12576141B2 (AlbuNext, LLC, priority 2023, dated 2026).

For data set [1] the following is noted: suitable for once weekly dosing; cited from earlier work.
The conditions of data set [2]: monotherapy, cited from earlier work.
A further data set has as its target GLP-1 receptor (Homo sapiens, UniProt P43220). Particulars: cited from earlier work.
The next data set deals with T1, Cys34 of rat albumin (Rattus norvegicus, UniProt P02770).
T1 construct: plasma samples collected from the rats that were injected s.c. and i.v; from tissue; host or cells: rat plasma (in vivo, circulating albumin)
T1 sequence (P02770 25-608): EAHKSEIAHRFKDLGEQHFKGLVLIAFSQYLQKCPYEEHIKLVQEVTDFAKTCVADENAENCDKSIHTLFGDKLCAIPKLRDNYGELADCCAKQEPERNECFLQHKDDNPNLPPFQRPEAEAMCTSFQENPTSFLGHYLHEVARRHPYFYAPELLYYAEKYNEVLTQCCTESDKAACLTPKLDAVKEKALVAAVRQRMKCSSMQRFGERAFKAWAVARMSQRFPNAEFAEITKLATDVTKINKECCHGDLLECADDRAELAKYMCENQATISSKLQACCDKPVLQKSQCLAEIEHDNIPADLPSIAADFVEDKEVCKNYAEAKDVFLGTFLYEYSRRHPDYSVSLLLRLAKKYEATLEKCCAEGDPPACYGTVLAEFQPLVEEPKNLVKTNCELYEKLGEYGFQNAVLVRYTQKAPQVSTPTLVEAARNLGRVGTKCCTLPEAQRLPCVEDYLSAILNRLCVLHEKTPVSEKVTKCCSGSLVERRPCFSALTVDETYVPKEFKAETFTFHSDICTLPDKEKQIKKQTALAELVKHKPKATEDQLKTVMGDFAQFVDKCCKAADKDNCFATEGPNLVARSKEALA
In words: electrophoresis of plasma samples from injected rats (translocation to rat albumin). The class given is in vivo. The procedure:
To further investigate the apparent inconsistencies supplementary electrophoresis experiments were conducted on the plasma samples collected from the rats that were injected s.c. and i.v. as noted above, and exemplary results are depicted in FIG. 30. As can be readily seen in the gel image, when conformationally unmodified AB-013 is tested in an electrophoresis experiment only one band is observed in the area where an albumin-exendin-4 MPA covalent construct would be observed. Completely unexpectedly, all time points taken during the experiment, including the earliest ones, had two bands in the area related to an albumin-exendin-4 MPA covalent construct.
This initial observation was further supported when a dynorphin-A-MPA peptide was injected intravenously to rats. Importantly, this dynorphin-A-MPA peptide was not conjugated to human albumin or any other type of albumin. […] In a similar fashion, the dynorphin-A-MPA peptide was also conjugated to human conformationally unmodified albumin in vitro to form a covalent bond between it and the Cys34 of human albumin. The dynorphin a human albumin covalent construct was injected intravenously to rats.

A word on the half-life: it is the time needed for the level to fall by half in the phase considered.

Chain of GLP-1 receptor (P43220 24-463, species assumed): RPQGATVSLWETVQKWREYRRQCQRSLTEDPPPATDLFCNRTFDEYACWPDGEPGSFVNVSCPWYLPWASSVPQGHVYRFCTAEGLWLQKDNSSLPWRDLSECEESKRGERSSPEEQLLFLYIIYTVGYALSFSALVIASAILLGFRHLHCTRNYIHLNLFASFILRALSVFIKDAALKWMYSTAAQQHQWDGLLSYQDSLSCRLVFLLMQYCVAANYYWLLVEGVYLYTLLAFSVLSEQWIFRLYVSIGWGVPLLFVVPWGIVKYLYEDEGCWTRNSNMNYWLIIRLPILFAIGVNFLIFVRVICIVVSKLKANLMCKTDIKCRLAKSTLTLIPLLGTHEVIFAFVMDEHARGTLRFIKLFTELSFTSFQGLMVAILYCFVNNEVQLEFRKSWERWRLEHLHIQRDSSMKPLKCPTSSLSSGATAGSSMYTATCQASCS

Regarding “albiglutide: albumin fusion protein in which a tandem repeat of Gly8 GLP-1 is fused to N-terminus of human serum albumin”, in data set [1], the half-life was 140 to 190 h. Further, the “decrease in HbA1c from baseline” value in data set [2] (30 mg weekly dose, week 52) was −0.7%. For the same substance, the “change from baseline of HbA1c” value in data set [2] (50 mg weekly dose) was −0.9%. In the data set with GLP-1 receptor, the GLP-1 receptor affinity was 20 nM.
For “dynorphin-A-MPA peptide: dynorphin-A-MPA peptide not conjugated to any albumin, injected for in vivo bioconjugation”, the “bands on electrophoresis gel in the area of the albumin covalent construct” value with Cys34 of rat albumin (rat plasma, all time points) is listed as “only one band”. Besides, in the data set with Cys34 of rat albumin (rats, intravenous, peptide not conjugated to albumin), the “bioconjugation in vivo with rat albumin” value was “did indeed occur”.
